± gives the standard deviation of the averaged measurements.
System: Saccharomyces cerevisiae
Assay: protein stability index of tFT-peptide fusion (C-terminal peptide) (PSI (0-1 scale)); higher = more stable (slower turnover)
Settings: temperature: 30 C
Protocol: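 MPS profiling in S. cerevisiae of the yeast C-terminome library: the last 12 aa of each annotated ORF are fused to the C-terminus of a sfGFP-mCherry timer, after a GGGS linker. Cells are FACS-sorted into 8 mCherry/sfGFP bins and deep-sequenced. PSI runs from 0 (unstable) to 1 (stable); wild type and das1Δ backgrounds, two technical replicates each.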

[1] = genetic background: das1 deletion

FIFYSILPTNVI [YPR123C C-terminal 12 aa] was tested, and the protein stability index [1] was 0.594 ± 0.013 and the protein stability index (genetic background: wild type) was 0.645 ± 0.029.
Work on FIKKWAHYYKKF [SBE22 C-terminal 12 aa] yielded a protein stability index [1] of 0.711 ± 0.026 and a protein stability index (genetic background: wild type) of 0.236 ± 0.0037.
For FKGFLENIDSYT [AIM22 C-terminal 12 aa], the protein stability index [1] was 0.714 ± 0.021 and the protein stability index (genetic background: wild type) was 0.706 ± 0.0014.
FKLHNETRCRNR [VPS71 C-terminal 12 aa] was tested, and the protein stability index [1] was 0.68 ± 0.017 and the protein stability index (genetic background: wild type) was 0.677 ± 0.007.
FKVASIANAQVR [ARC1 C-terminal 12 aa] gave a protein stability index [1] of 0.689 ± 0.0093 and a protein stability index (genetic background: wild type) of 0.696 ± 0.027.
FLFSCMLYKIDP [YML089C C-terminal 12 aa] was tested, and the protein stability index [1] was 0.669 ± 0.027 and the protein stability index (genetic background: wild type) was 0.664 ± 0.034.
Work on FLILVFVMKKNH [YDR018C C-terminal 12 aa] yielded a protein stability index [1] of 0.287 ± 0.0071 and a protein stability index (genetic background: wild type) of 0.269 ± 0.017.
Work on FLKNFTNDTFDN [BCH1 C-terminal 12 aa] yielded a protein stability index [1] of 0.7055 ± 0.0035 and a protein stability index (genetic background: wild type) of 0.7462 ± 0.0044.
For FPEKNIVNLKSA [CHA1 C-terminal 12 aa], the protein stability index [1] was 0.6971 ± 0.0067 and the protein stability index (genetic background: wild type) was 0.1495 ± 0.0011.
Sequence “FPVTLWSKVILK [YHR073W-A C-terminal 12 aa]” has a protein stability index [1] of 0.569 ± 0.0092 and a protein stability index (genetic background: wild type) of 0.559 ± 0.026.
FRHNRSNKKLGC [GEX1 C-terminal 12 aa] gave a protein stability index [1] of 0.725 ± 0.025 and a protein stability index (genetic background: wild type) of 0.7365 ± 0.0018.
FRPDEMNIVTKF [PRM15 C-terminal 12 aa] showed a protein stability index [1] of 0.68 ± 0.022 and a protein stability index (genetic background: wild type) of 0.753 ± 0.024.
In the case of FRTDEVYAAWRD [KAE1 C-terminal 12 aa], the protein stability index [1] is reported as 0.6891 ± 0.0051 and the protein stability index (genetic background: wild type) is reported as 0.6814 ± 0.0024.
FSIRSISKFIFT [YOR325W C-terminal 12 aa] was tested, and the protein stability index [1] was 0.649 ± 0.014 and the protein stability index (genetic background: wild type) was 0.665 ± 0.051.
FSNLLWFDQNFA [STB4 C-terminal 12 aa] was tested, and the protein stability index [1] was 0.742 ± 0.014 and the protein stability index (genetic background: wild type) was 0.786 ± 0.079.
With FSTEYLGLICTY [YLR232W C-terminal 12 aa] the protein stability index [1] was 0.49388 ± 0.0004 and the protein stability index (genetic background: wild type) was 0.5496 ± 0.0009.
Sequence FTMSLAHCLMFS [YJL169W C-terminal 12 aa] has a protein stability index [1] of 0.636 ± 0.016 and a protein stability index (genetic background: wild type) of 0.668 ± 0.066.
“FVAYTTLTFKKT [YMR001C-A C-terminal 12 aa]” gave a protein stability index [1] of 0.6649 ± 0.0001 and a protein stability index (genetic background: wild type) of 0.67 ± 0.037.
Work on FVEGGDGKYVLN [YPL113C C-terminal 12 aa] yielded a protein stability index [1] of 0.688 ± 0.016 and a protein stability index (genetic background: wild type) of 0.676 ± 0.014.
In the case of FVKDEIHKDILD [PEX21 C-terminal 12 aa], the protein stability index [1] is reported as 0.7 ± 0.017 and the protein stability index (genetic background: wild type) is reported as 0.685 ± 0.011.
FVKVIDYTSNGW [PBY1 C-terminal 12 aa] was tested, and the protein stability index [1] was 0.676 ± 0.0086 and the protein stability index (genetic background: wild type) was 0.685 ± 0.015.
For “FVLSISFRQEQT [YER172C-A C-terminal 12 aa]”, the protein stability index [1] was 0.577 ± 0.042 and the protein stability index (genetic background: wild type) was 0.591 ± 0.025.
FYSLCEKGGYLK [BPT1 C-terminal 12 aa] gave a protein stability index [1] of 0.679 ± 0.014 and a protein stability index (genetic background: wild type) of 0.66733 ± 0.00062.
Sequence FYSVFALMVIFV [YIP1 C-terminal 12 aa] has a protein stability index [1] of 0.178 ± 0.013 and a protein stability index (genetic background: wild type) of 0.122 ± 0.003.
GAAVGGALAFLI [DDR2 C-terminal 12 aa] showed a protein stability index [1] of 0.702 ± 0.02 and a protein stability index (genetic background: wild type) of 0.677 ± 0.0076.
GAIMGAAAFALL [TOS6 C-terminal 12 aa] showed a protein stability index [1] of 0.699 ± 0.013 and a protein stability index (genetic background: wild type) of 0.729 ± 0.053.
Work on GAQPHLYIPDED [USA1 C-terminal 12 aa] yielded a protein stability index [1] of 0.6896 ± 0.0026 and a protein stability index (genetic background: wild type) of 0.6982 ± 0.003.
For GCSLQISYARRD [GBP2 C-terminal 12 aa], the protein stability index [1] was 0.706 ± 0.018 and the protein stability index (genetic background: wild type) was 0.6525 ± 0.0037.
GCVKMYKFDLND [MET30 C-terminal 12 aa] gave a protein stability index [1] of 0.713 ± 0.044 and a protein stability index (genetic background: wild type) of 0.7322 ± 0.0023.
Sequence GDLLSLKGEIMQ [ALK2 C-terminal 12 aa] has a protein stability index [1] of 0.689 ± 0.022 and a protein stability index (genetic background: wild type) of 0.691 ± 0.029.
With GDVSNLPYLDEL [QCR2 C-terminal 12 aa] the protein stability index [1] was 0.694 ± 0.013 and the protein stability index (genetic background: wild type) was 0.722 ± 0.039.
In the case of GDYTVKQPEATK [AIM9 C-terminal 12 aa], the protein stability index [1] is reported as 0.703 ± 0.013 and the protein stability index (genetic background: wild type) is reported as 0.672 ± 0.029.
GEDPYMDLMKEF [TPK3 C-terminal 12 aa] was tested, and the protein stability index [1] was 0.745 ± 0.013 and the protein stability index (genetic background: wild type) was 0.733 ± 0.036.
GEDTGPTVEEVD [SSA3 C-terminal 12 aa] gave a protein stability index [1] of 0.682 ± 0.013 and a protein stability index (genetic background: wild type) of 0.684 ± 0.015.
Sequence GGGVLQLISYIL [YSY6 C-terminal 12 aa] has a protein stability index [1] of 0.706 ± 0.0057 and a protein stability index (genetic background: wild type) of 0.656 ± 0.015.
GGKDKMVRLWTH [RSA4 C-terminal 12 aa] gave a protein stability index [1] of 0.691 ± 0.011 and a protein stability index (genetic background: wild type) of 0.698 ± 0.0076.
GGPFPYYFNTFC [YKL169C C-terminal 12 aa] gave a protein stability index [1] of 0.704 ± 0.028 and a protein stability index (genetic background: wild type) of 0.53 ± 0.027.
With GHSHKHKGHQKK [KRI1 C-terminal 12 aa] the protein stability index [1] was 0.673 ± 0.008 and the protein stability index (genetic background: wild type) was 0.667 ± 0.018.
GIHPPEPIAAAA [KTI11 C-terminal 12 aa] was tested, and the protein stability index [1] was 0.3 ± 0.031 and the protein stability index (genetic background: wild type) was 0.357 ± 0.017.
Sequence GKNQWFFSKLRF [RPL27A C-terminal 12 aa] has a protein stability index [1] of 0.707 ± 0.0096 and a protein stability index (genetic background: wild type) of 0.683 ± 0.013.
GLKQKSTIVTVD [CDC5 C-terminal 12 aa] showed a protein stability index [1] of 0.6917 ± 0.0015 and a protein stability index (genetic background: wild type) of 0.717 ± 0.078.
For GLLVVFDRIDVK [MET7 C-terminal 12 aa], the protein stability index [1] was 0.667 ± 0.015 and the protein stability index (genetic background: wild type) was 0.634 ± 0.013.
Sequence GLTLIGRQSDSI [RAD7 C-terminal 12 aa] has a protein stability index [1] of 0.7025 ± 0.0011 and a protein stability index (genetic background: wild type) of 0.71 ± 0.074.
GMYSRAYETHTL [ERG7 C-terminal 12 aa] was tested, and the protein stability index [1] was 0.7 ± 0.012 and the protein stability index (genetic background: wild type) was 0.696 ± 0.022.
For GNAEFAASLLFQ [DDI1 C-terminal 12 aa], the protein stability index [1] was 0.7205 ± 0.0066 and the protein stability index (genetic background: wild type) was 0.7022 ± 0.0025.
For GNEPMEKFIQSL [YMR090W C-terminal 12 aa], the protein stability index [1] was 0.694 ± 0.005 and the protein stability index (genetic background: wild type) was 0.669 ± 0.0072.
For GNSGGSNNSSWW [DED1 C-terminal 12 aa], the protein stability index [1] was 0.71484 ± 0.00065 and the protein stability index (genetic background: wild type) was 0.697 ± 0.02.
GNTGSGGYDNAW [RPB3 C-terminal 12 aa] showed a protein stability index [1] of 0.704 ± 0.052 and a protein stability index (genetic background: wild type) of 0.723 ± 0.026.
GPDAPLSKMKYE [SCS7 C-terminal 12 aa] gave a protein stability index [1] of 0.684 ± 0.0086 and a protein stability index (genetic background: wild type) of 0.704 ± 0.0071.
GQLLSGSCLLNM [YBR226C C-terminal 12 aa] showed a protein stability index [1] of 0.686 ± 0.013 and a protein stability index (genetic background: wild type) of 0.679 ± 0.053.
Work on GRPSMVPIAELK [MLH3 C-terminal 12 aa] yielded a protein stability index [1] of 0.672 ± 0.019 and a protein stability index (genetic background: wild type) of 0.714 ± 0.062.
With GSGDEPDSKRRK [YCR051W C-terminal 12 aa] the protein stability index [1] was 0.693 ± 0.044 and the protein stability index (genetic background: wild type) was 0.666 ± 0.037.
GTQVMYISEQKI [LSM6 C-terminal 12 aa] showed a protein stability index [1] of 0.698 ± 0.0048 and a protein stability index (genetic background: wild type) of 0.713 ± 0.016.
For GVEKYWGILSNE [SCW4 C-terminal 12 aa], the protein stability index [1] was 0.723 ± 0.0089 and the protein stability index (genetic background: wild type) was 0.726 ± 0.039.
GVETIAKCIDLL [CAR2 C-terminal 12 aa] was tested, and the protein stability index [1] was 0.71 ± 0.017 and the protein stability index (genetic background: wild type) was 0.698 ± 0.011.
Work on GVIIELGSWSAW [YDR415C C-terminal 12 aa] yielded a protein stability index [1] of 0.7055 ± 0.0066 and a protein stability index (genetic background: wild type) of 0.71701 ± 0.00054.
For GWLQDKHFEKYL [YOR338W C-terminal 12 aa], the protein stability index [1] was 0.705 ± 0.022 and the protein stability index (genetic background: wild type) was 0.447 ± 0.03.
HAKGSGNTMNRG [TAP42 C-terminal 12 aa] showed a protein stability index [1] of 0.691 ± 0.029 and a protein stability index (genetic background: wild type) of 0.664 ± 0.015.
Sequence HCQPQEILVLRQ [PEX10 C-terminal 12 aa] has a protein stability index [1] of 0.7094 ± 0.0062 and a protein stability index (genetic background: wild type) of 0.7 ± 0.013.
HDRSESDSDLDI [PLP1 C-terminal 12 aa] showed a protein stability index [1] of 0.671 ± 0.015 and a protein stability index (genetic background: wild type) of 0.677 ± 0.015.
With HELSKDFSNLGI [NAM7 C-terminal 12 aa] the protein stability index [1] was 0.7008 ± 0.00089 and the protein stability index (genetic background: wild type) was 0.683 ± 0.038.

Source: the supplement of paper PMC10724198
